The record followed here is patent US20030175712A1 (published 2003).

The target of experiment [1] is Gβγ (Ste4p/Ste18p) in yeast cells (S. cerevisiae) (UniProt P18852). Nature of the experiment: cell-based or functional assay.
Experiment [2] deals with T1, MBP-Far1 H7 (S. cerevisiae, UniProt P21268 1-755).
T1 sequence (looked up): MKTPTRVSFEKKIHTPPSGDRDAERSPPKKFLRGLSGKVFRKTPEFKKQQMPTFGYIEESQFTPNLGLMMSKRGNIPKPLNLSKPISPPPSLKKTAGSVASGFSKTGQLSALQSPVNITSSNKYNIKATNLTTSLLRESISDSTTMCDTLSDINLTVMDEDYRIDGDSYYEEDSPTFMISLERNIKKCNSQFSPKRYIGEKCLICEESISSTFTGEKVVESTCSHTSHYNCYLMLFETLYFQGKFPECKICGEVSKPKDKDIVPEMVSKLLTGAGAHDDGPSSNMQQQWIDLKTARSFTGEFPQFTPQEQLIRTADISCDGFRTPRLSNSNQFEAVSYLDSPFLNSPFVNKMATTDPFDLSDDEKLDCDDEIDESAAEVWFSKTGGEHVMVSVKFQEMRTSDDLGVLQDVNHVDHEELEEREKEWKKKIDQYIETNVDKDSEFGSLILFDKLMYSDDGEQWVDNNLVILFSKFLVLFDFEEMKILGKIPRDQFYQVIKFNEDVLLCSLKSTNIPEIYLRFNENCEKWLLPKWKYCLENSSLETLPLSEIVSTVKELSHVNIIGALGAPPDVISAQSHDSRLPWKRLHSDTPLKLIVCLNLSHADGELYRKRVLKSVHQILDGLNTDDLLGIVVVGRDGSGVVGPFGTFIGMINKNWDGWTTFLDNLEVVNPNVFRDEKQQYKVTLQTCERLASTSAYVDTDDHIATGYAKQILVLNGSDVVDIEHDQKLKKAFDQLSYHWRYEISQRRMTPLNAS
In words: in vitro binding of purified MBP-Far1 and GST-Cdc24 fusions.

Experiment [3] has as its target T2, MBP-Far1 (S. cerevisiae, UniProt P21268 1-830, limits assumed).
T2 construct: Expressed and purified from E. coli
T2 sequence (looked up): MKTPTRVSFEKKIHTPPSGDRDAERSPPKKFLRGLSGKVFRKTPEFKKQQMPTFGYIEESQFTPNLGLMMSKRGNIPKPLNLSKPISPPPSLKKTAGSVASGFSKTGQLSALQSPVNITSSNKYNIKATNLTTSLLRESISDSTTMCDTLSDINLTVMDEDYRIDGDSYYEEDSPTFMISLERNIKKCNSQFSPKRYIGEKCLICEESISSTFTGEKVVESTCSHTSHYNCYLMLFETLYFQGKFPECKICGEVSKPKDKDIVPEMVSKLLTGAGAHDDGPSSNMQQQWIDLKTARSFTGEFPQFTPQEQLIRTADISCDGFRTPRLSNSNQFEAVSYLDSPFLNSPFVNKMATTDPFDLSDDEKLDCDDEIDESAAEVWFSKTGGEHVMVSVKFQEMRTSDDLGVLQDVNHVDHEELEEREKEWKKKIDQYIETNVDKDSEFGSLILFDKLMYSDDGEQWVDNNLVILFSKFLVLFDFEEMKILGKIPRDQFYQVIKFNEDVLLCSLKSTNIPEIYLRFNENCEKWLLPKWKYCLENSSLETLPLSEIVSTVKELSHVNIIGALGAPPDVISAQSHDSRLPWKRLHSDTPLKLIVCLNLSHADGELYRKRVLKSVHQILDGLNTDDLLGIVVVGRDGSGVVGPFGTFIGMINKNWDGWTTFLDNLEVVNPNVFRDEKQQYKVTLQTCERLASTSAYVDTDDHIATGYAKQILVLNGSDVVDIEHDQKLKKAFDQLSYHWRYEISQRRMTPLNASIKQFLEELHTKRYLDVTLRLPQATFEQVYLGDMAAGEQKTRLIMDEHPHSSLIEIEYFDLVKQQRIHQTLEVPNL
In words: in vitro binding of fusion proteins purified from E. coli.

For experiment [4], the target named is T3, 3×myc-Cdc24-m1 mutant (S. cerevisiae, UniProt P11433 1-854).
T3 sequence (looked up): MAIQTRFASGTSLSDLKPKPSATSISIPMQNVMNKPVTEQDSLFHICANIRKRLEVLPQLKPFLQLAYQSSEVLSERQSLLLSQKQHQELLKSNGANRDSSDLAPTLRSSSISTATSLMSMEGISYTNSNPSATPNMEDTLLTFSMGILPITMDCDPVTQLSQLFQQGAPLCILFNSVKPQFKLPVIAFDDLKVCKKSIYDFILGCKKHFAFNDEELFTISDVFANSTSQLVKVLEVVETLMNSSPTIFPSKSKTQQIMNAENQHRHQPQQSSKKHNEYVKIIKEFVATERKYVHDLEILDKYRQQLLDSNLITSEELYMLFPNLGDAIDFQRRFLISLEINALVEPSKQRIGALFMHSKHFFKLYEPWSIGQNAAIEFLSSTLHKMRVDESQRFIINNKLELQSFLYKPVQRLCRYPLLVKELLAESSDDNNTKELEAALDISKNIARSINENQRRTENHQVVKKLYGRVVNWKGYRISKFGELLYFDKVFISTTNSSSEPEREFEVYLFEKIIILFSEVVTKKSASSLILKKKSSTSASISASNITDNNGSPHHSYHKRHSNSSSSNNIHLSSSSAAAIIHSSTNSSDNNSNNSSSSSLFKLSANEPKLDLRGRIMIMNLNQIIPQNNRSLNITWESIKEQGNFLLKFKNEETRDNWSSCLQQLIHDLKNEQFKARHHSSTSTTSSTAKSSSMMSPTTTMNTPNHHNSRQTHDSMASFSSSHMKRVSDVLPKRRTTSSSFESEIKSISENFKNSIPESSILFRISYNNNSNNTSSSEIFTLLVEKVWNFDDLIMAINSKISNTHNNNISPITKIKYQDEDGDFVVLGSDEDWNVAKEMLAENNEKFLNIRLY
Nature of the experiment: co-precipitation with Far1-protein A on IgG-Sepharose from yeast extracts. From the text: Although cdc24-m and far1-s mutants result in similar defects in growth orientation during mating, we set out to determine if these genes function in the same orientation process. […] Cdc24 and Far1 were epitope tagged in order to determine whether these proteins interact in yeast cells. The chronosomal copy of Cdc24 was replaced with a 3×myc tagged Cdc24 and the chromosomal copy of Far1 was replaced with Far1 protein A fusion. Both of these fusion proteins are fully functional. Isolation of Far1-protein A from yeast extracts using IgG-Sepharose co-precipitated 3×myc-Cdc24. In contrast, the 3×myc-Cdc24-m1 mutant was defective in binding Far1 in similar imnmunoprecipitation assays.

Experiment [5] has as its target T4, Cdc24p, two-hybrid construct (limits not stated) (S. cerevisiae, UniProt P11433 1-288).
T4 construct: not shown: GAL4 two-hybrid fusion partner
T4 sequence (looked up): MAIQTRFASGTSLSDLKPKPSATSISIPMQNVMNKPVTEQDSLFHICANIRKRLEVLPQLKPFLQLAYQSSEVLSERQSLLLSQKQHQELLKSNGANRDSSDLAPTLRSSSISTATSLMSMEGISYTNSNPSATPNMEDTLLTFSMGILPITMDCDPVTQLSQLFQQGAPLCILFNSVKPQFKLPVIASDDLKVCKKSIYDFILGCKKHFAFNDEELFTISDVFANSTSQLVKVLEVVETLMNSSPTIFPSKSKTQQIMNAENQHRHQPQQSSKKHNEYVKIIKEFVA
Nature of the experiment: yeast two-hybrid screen.

Sequence of Gβγ (Ste4p/Ste18p) in yeast cells (S. cerevisiae) (P18852 1-107): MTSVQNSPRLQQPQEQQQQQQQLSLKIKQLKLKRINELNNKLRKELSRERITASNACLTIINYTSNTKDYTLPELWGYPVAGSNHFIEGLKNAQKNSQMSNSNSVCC

In experiment [1], “Cdc24p in CDC24 (wild type) yeast cells (from UniProt P11433 1-854)” displayed an average cosine of the angle of cell projection relative to the micropipet (orientation in a pheromone gradient) of 0.52.

B1: GSTCdc24p (1-472 aa) (other, S. cerevisiae, UniProt P11433 1-472, looked up)
chain: MAIQTRFASGTSLSDLKPKPSATSISIPMQNVMNKPVTEQDSLFHICANIRKRLEVLPQLKPFLQLAYQSSEVLSERQSLLLSQKQHQELLKSNGANRDSSDLAPTLRSSSISTATSLMSMEGISYTNSNPSATPNMEDTLLTFSMGILPITMDCDPVTQLSQLFQQGAPLCILFNSVKPQFKLPVIASDDLKVCKKSIYDFILGCKKHFAFNDEELFTISDVFANSTSQLVKVLEVVETLMNSSPTIFPSKSKTQQIMNAENQHRHQPQQSSKKHNEYVKIIKEFVATERKYVHDLEILDKYRQQLLDSNLITSEELYMLFPNLGDAIDFQRRFLISLEINALVEPSKQRIGALFMHSKHFFKLYEPWSIGQNAAIEFLSSTLHKMRVDESQRFIINNKLELQSFLYKPVQRLCRYPLLVKELLAESSDDNNTKELEAALDISKNIARSINENQRRTENHQVVKKLYGRVV
notes: range 1-472; Expressed in E. coli; also called GSTCdc24 fusion; GST Cdc24 fusion (residues 1-472); not shown: glutathione-S-transferase as encoded by pGEX-2T (Pharmacia)
Take B1: the binding result was “no binding” in experiment [2] and “binds” in experiment [3].

B2: Far1 protein A fusion (other, S. cerevisiae, UniProt P21268 1-830, looked up)
chain: MKTPTRVSFEKKIHTPPSGDRDAERSPPKKFLRGLSGKVFRKTPEFKKQQMPTFGYIEESQFTPNLGLMMSKRGNIPKPLNLSKPISPPPSLKKTAGSVASGFSKTGQLSALQSPVNITSSNKYNIKATNLTTSLLRESISDSTTMCDTLSDINLTVMDEDYRIDGDSYYEEDSPTFMISLERNIKKCNSQFSPKRYIGEKCLICEESISSTFTGEKVVESTCSHTSHYNCYLMLFETLYFQGKFPECKICGEVSKPKDKDIVPEMVSKLLTGAGAHDDGPSSNMQQQWIDLKTARSFTGEFPQFTPQEQLIRTADISCDGFRTPRLSNSNQFEAVSYLDSPFLNSPFVNKMATTDPFDLSDDEKLDCDDEIDESAAEVWFSKTGGEHVMVSVKFQEMRTSDDLGVLQDVNHVDHEELEEREKEWKKKIDQYIETNVDKDSEFGSLILFDKLMYSDDGEQWVDNNLVILFSKFLVLFDFEEMKILGKIPRDQFYQVIKFNEDVLLCSLKSTNIPEIYLRFNENCEKWLLPKWKYCLENSSLETLPLSEIVSTVKELSHVNIIGALGAPPDVISAQSHDSRLPWKRLHSDTPLKLIVCLNLSHADGELYRKRVLKSVHQILDGLNTDDLLGIVVVGRDGSGVVGPFGTFIGMINKNWDGWTTFLDNLEVVNPNVFRDEKQQYKVTLQTCERLASTSAYVDTDDHIATGYAKQILVLNGSDVVDIEHDQKLKKAFDQLSYHWRYEISQRRMTPLNASIKQFLEELHTKRYLDVTLRLPQATFEQVYLGDMAAGEQKTRLIMDEHPHSSLIEIEYFDLVKQQRIHQTLEVPNL
notes: Isolated from yeast extracts on IgG-Sepharose; not shown: protein A moiety
Consider B2, for which the binding result in experiment [4] is given as “no binding”.

B3: Ste4p mutant (SEQ. I.D. No: 13) (other)
chain: MAHQMDSITYSNNVTQQYIQPQSLQDISAVEEEIQNKIEAARQESKQLHAQINKAKHKIQDASLFQMANKVTSLTKNKINLKPNIVLKGHNNKISDFRWSRDSKRILSASQDGFMLIWDSASGLKQNAIPLDSQWVLSCAISPSSTLVASAGLNNNCTIYRVSKENRVAQNVASIFKGHTCYISDIEFTDNAHILTASGDMTCALWDIPKAKRVRGYSDHLGDVLALAIPEEPNLENSSNTFASCGSDGYTYIWDSRSPSAVQSFYVNDSDINALRFFKDGMSIVAGSDNGAINMYDLRSDCSIATFSLFRGYEERTPTPTYMAANMEYNTAQSPQTLKSTSSSYLDNQGVVSLDFSASGRLMYSCYTDIGCVVWDVLKGEIVGKLEGHGGRVTGVRSSPDGLAVCTGSWDSTMKIWSPGYQ
notes: Isolated in a two-hybrid screen; also called mutant G protein β subunit; I.D. No: 12 (nucleotide); not shown: GAL4 two-hybrid fusion partner
Regarding B3, the binding result in experiment [5] is on record as “no binding”.

B4: Ste4p mutant (SEQ. I.D. No: 15) (other)
chain: MAHQMDSITYSNNVTQQYIQPQSLQDISAVEEEIQNKIEAARQESKQLHAQINKAKHKIQDASLFQMANKVTSLTKNKINLKPNIVLKGHNNKISDFRWSRDSKRILSASQDGFMLIWDSASGLKQNAIPLDSQWVLSCAISPSSTLVASAGLNNNCTIYRVSKENRVAQNVASIFKGHTCYISDIEFTDNAHILTASGDMTCALWDIPKAKRVREYSDHLGDVLALAIPEEPNLENSSNTFASCGSDGYTYIWDSRSPSAVQSFYVNDSDINALRFFKDGMSIVAGSDNGAINMYDLRSDCSIATFSLFRGYEERTPTPTYMAANMEYNTAQSPQTLKSTSSSYLDNQGAVSLDFSASGRLMYSCYTDIGCVVWDVLKGEIVGKLEGHGGRVTGVRSSPDGLAVCTGSWDSTMKIWSPGYQ
notes: Isolated in a two-hybrid screen; also called mutant G protein β subunit; I.D. No: 14 (nucleotide); not shown: GAL4 two-hybrid fusion partner
Consider B4, for which the binding result in experiment [5] is “no binding”.
